Measured values taken from IntAct's records for PubMed 21600204.

B1: Hemolysin expression-modulating protein Hha (Escherichia coli (strain K12)), P0ACE3 (parent)
chain: MSEKPLTKTDYLMRLRRCQTIDTLERVIEKNKYELSDNELAVFYSAADHRLAELTMNKLYDKIPSSVWKFIR
partner: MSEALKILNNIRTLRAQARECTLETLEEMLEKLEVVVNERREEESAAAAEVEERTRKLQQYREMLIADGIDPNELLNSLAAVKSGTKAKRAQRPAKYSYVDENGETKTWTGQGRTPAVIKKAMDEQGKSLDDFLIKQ
B2: OriC-binding nucleoid-associated protein (Escherichia coli (strain K12)), P64467 (parent)
chain: MTVQDYLLKFRKISSLESLEKLYDHLNYTLTDDQELINMYRAADHRRAELVSGGRLFDLGQVPKSVWHYVQ
partner: B1 partner

Variants of: B1
Details: with hns_ecoli hns

Variant | effect of a mutation on the interaction
MSEKPLTKTDYLMRLRRCQTIDTLERVIEKNKYELSDNELAVFYSAANHRLAELTMNKLYDKIPSSVWKFIR [D48N] | disrupting interaction

Variants of: B1
Details: with hns_ecoli hns
Remark: another data set of the same source

Variant | effect of a mutation on the interaction
MSEKPLTKTDYLMRLRRCQTIDTLQRVIEKNKYELSDNELAVFYSAADHRLAELTMNKLYDKIPSSVWKFIR [E25Q] | decreasing interaction

Variants of: B2
Details: with hns_ecoli hns

Variant | effect of a mutation on the interaction
MTVQDYLLKFRKISSLESLEKLYDHLNYTLTDDQELINMYRAANHRRAELVSGGRLFDLGQVPKSVWHYVQ [D44N] | disrupting interaction
